B1: Beta-adrenergic receptor kinase 1 (Bos taurus (Bovine)), P21146 (parent)
chain: MADLEAVLADVSYLMAMEKSKATPAARASKKILLPEPSIRSVMQKYLEDRGEVTFEKIFSQKLGYLLFRDFCLKHLEEAKPLVEFYEEIKKYEKLETEEERLVCSREIFDTYIMKELLACSHPFSKSAIEHVQGHLVKKQVPPDLFQPYIEEICQNLRGDVFQKFIESDKFTRFCQWKNVELNIHLTMNDFSVHRIIGRGGFGEVYGCRKADTGKMYAMKCLDKKRIKMKQGETLALNERIMLSLVSTGDCPFIVCMSYAFHTPDKLSFILDLMNGGDLHYHLSQHGVFSEADMRFYAAEIILGLEHMHNRFVVYRDLKPANILLDEHGHVRISDLGLACDFSKKKPHASVGTHGYMAPEVLQKGVAYDSSADWFSLGCMLFKLLRGHSPFRQHKTKDKHEIDRMTLTMAVELPDSFSPELRSLLEGLLQRDVNRRLGCLGRGAQEVKESPFFRSLDWQMVFLQKYPPPLIPPRGEVNAADAFDIGSFDEEDTKGIKLLDSDQELYRNFPLTISERWQQEVAETVFDTINAETDRLEARKKTKNKQLGHEEDYALGKDCIMHGYMSKMGNPFLTQWQRRYFYLFPNRLEWRGEGEAPQSLLTMEEIQSVEETQIKERKCLLLKIRGGKQFVLQCDSDPELVQWKKELRDAYREAQQLVQRVPKMKNKPRSPVVELSKVPLIQRGSANGL
partner: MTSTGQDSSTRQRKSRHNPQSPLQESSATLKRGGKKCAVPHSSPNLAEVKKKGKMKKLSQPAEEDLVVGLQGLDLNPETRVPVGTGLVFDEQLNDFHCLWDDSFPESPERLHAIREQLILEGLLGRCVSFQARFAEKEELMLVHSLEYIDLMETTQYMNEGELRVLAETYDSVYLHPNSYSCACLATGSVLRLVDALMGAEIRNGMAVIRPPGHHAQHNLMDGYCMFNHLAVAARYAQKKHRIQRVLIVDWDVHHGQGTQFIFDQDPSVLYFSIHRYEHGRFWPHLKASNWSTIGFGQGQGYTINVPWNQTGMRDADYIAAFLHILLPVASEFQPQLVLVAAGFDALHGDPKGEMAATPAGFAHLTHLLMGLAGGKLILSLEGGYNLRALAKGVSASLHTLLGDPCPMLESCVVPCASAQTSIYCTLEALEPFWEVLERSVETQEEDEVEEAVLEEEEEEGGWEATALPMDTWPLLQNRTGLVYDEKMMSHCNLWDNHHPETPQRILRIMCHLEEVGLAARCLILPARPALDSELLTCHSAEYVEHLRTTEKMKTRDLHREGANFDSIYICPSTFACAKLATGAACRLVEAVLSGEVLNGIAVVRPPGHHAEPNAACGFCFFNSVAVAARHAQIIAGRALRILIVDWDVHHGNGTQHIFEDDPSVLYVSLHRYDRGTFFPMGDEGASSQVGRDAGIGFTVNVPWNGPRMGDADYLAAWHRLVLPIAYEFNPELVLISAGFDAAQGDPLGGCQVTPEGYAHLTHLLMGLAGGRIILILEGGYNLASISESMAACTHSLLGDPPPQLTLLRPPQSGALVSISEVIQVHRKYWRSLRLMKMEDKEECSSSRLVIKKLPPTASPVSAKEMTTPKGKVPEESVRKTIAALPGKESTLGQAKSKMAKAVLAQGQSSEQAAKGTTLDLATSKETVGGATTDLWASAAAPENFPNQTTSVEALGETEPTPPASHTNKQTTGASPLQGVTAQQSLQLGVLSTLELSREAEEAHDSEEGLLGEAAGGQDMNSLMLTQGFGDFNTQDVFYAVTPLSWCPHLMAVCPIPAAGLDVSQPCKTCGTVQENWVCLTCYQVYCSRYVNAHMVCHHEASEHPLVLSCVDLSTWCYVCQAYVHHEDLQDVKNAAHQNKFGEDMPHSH
B2: Beta-adrenergic receptor kinase 1 (Bos taurus (Bovine)), P21146 (parent)
chain: B1 chain

The variants in one assay derive from B1. As to conditions: with hdac6_mouse Hdac6, Q9Z2V5.
Take K220R: the “effect of a mutation on the interaction” value is reported as “increasing interaction”.

Variants of B2 are the subject of the next assay. As to conditions: with hdac6_human HDAC6, Q9UBN7.
hdac6_human HDAC6, Q9UBN7, sequence (Q9UBN7 whole entry): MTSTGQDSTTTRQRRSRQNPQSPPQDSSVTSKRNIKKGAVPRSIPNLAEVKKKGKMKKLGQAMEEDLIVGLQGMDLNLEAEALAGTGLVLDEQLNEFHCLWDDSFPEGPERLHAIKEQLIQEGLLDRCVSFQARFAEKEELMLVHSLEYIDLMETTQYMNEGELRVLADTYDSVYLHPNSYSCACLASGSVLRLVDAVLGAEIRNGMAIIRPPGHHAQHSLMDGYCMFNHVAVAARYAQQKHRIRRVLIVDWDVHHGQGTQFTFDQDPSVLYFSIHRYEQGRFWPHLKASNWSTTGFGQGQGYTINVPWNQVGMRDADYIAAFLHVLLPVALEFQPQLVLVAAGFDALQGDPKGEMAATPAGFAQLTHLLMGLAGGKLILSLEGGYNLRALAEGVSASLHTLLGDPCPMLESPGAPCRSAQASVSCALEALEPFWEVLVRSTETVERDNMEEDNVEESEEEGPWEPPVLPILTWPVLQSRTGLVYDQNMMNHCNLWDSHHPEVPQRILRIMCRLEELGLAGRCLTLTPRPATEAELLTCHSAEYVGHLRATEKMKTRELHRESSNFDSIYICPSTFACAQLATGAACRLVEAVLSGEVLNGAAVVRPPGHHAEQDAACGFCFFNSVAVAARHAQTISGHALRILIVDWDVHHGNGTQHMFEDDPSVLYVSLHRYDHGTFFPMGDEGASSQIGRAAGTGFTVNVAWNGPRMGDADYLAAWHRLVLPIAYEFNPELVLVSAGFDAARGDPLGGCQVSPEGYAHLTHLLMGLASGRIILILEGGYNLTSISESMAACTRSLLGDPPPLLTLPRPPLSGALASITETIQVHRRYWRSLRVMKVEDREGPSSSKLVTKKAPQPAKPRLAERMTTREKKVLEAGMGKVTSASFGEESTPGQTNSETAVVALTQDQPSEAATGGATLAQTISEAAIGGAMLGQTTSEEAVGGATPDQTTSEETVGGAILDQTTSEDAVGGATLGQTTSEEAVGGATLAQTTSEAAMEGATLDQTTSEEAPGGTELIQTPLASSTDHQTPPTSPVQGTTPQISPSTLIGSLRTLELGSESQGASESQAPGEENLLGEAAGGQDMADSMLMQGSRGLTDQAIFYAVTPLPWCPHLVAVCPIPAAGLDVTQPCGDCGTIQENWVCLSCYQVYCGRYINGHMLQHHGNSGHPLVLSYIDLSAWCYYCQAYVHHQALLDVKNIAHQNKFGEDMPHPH
Turning to S670A, the “effect of a mutation on the interaction” value is “decreasing interaction”.

The variants in the next assay derive from B2. As to conditions: with hdac6_human HDAC6, Q9UBN7. This is another data set of the same source.
Take K220R: the “effect of a mutation on the interaction” value is “disrupting interaction”.
